Values of other authors, collected in PMC3423493.

Legend:
[1] = target: Sclerostin (Homo sapiens) (UniProt Q9BQB4)
BMP2 (Homo sapiens) = BMP2 (Homo sapiens) (UniProt P12643)
Sequence of UniProt P12643 (P12643 283-396): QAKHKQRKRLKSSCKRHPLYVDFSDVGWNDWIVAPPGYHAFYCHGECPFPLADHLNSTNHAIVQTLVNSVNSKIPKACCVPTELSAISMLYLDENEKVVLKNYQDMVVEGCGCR

Sequence of UniProt Q9BQB4 (Q9BQB4 24-213): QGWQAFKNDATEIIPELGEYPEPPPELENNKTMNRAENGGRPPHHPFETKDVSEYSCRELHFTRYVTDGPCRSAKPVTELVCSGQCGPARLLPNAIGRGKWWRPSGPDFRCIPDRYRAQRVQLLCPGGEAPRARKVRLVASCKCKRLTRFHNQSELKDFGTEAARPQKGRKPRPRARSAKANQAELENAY

- Kd [1]: 2.92 nM
- Kd (BMP2 (Homo sapiens)): 0.02 nM
Substance: Noggin (from UniProt Q13253)
